Results: the supplement of paper PMC10724198
± gives the standard deviation of the averaged measurements.

test system: Saccharomyces cerevisiae; experiment: protein stability index of tFT-peptide fusion (C-terminal peptide) (PSI (0-1 scale)); higher = more stable (slower turnover); conditions: genetic background: wild type; temperature: 30 C
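Further: PSI is a weighted mean of sequencing reads over stability bins, variants kept only with over 10 reads, mCherry proximal and sfGFP distal, peptide attached via GGGS linker.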

Sequence	protein stability index
VSCGVSEGDVVC	0.675 ± 0.031
VSFCRVLQSSQS	0.692 ± 0.021
VSFLVPRYLFSG	0.654 ± 0.16
VSFNPAGYKSRN	0.671 ± 0.042
VSFRAMDRLTSR	0.6171 ± 0.0023
VSGDPWMWDVFI	0.746 ± 0.036
VSGFPHASSSPT	0.6225 ± 0.0052
VSGGGAPRSVWR	0.706 ± 0.0083
VSGGGWDSCLSV	0.724 ± 0.0082
VSGGRLVGWGGW	0.731 ± 0.12
VSHCLLRAFSDC	0.556 ± 0.011
VSHGPAIHALSI	0.669 ± 0.028
VSIPRTLFITRF	0.67018 ± 0.00016
VSIVTLSLSNFA	0.611 ± 0.0072
VSLALYSSVSIC	0.5382 ± 0.0049
VSLCGSGLGLWV	0.682 ± 0.033
VSLCYGGGFWGR	0.698 ± 0.018
VSLFETIPVLSR	0.605 ± 0.014
VSLLIPVGVYPR	0.667 ± 0.015
VSLPGTWSSLSA	0.6554 ± 0.0064
VSNVSGKEYINV	0.681 ± 0.038
VSPAPSAILRLD	0.6765 ± 0.0025
VSPDVYGVCLRL	0.703 ± 0.081

Sequence	protein stability index
VSPLDSPASLYS	0.6573 ± 0.0062
VSPPLHFLPLHF	0.6661 ± 0.004
VSRGGVAYGRVG	0.742 ± 0.049
VSRQHLPAVLHL	0.661 ± 0.024
VSSSQPGEYNIG	0.7088 ± 0.0029
VSSSSPSNFIPL	0.666 ± 0.093
VSTENDGCGTPR	0.712 ± 0.022
VSVGWWVGFWGV	0.6968 ± 0.0051
VSVRLWSGQSAG	0.672 ± 0.11
VSWFVGFCLWFP	0.5506 ± 0.0025
VTDSRAIMARRV	0.645 ± 0.083
VTEWGVKWWEDR	0.714 ± 0.11
VTKAALADLRHM	0.609 ± 0.016
VTLFGVFQGFVG	0.709 ± 0.02
VTLGQNGVSLRS	0.596 ± 0.071
VVAIGRVWGERA	0.68 ± 0.059
VVATRYGGCFRR	0.669 ± 0.04
VVCKVLVTGIFD	0.604 ± 0.0062
VVDGSILTIRCL	0.6226 ± 0.0048
VVDPDVIGREIR	0.706 ± 0.014
VVECGERWWCLT	0.705 ± 0.032
VVEGVFGQRFAG	0.701 ± 0.033
VVFKPHEVRTSD	0.717 ± 0.054

Sequence	protein stability index
VVGAGTEWMVEV	0.642 ± 0.025
VVGAWGRGGCGG	0.633 ± 0.01
VVGGRWVVWSFK	0.688 ± 0.018
VVGQGYDSGIRY	0.724 ± 0.024
VVGRGGLICGRW	0.625 ± 0.072
VVGSVQQSSDSC	0.692 ± 0.07
VVIPLDKGVIVQ	0.56 ± 0.014
VVKEGGGCREGR	0.64 ± 0.028
VVKGGGLGRRAG	0.66 ± 0.089
VVLFGAGGSWGG	0.726 ± 0.063
VVMTAVEGMWDG	0.5914 ± 0.0059
VVPLTPPLSAPR	0.68 ± 0.031
VVPSMFPGAEVL	0.691 ± 0.026
VVSFDPLFPSPR	0.706 ± 0.037
VVSSSMGCCFRG	0.659 ± 0.076
VVVGVGGCVYMG	0.702 ± 0.06
VVVLCLFFSFFL	0.5872 ± 0.0011
VVVSGGGEGFWL	0.745 ± 0.027
VVWVCVRLPVRR	0.53046 ± 0.00025
VVYGVSHEETST	0.622 ± 0.018
VWAREGLGLRPP	0.673 ± 0.11
VWDQTKKKKIKK	0.704 ± 0.014
VWFSFGCGFFGR	0.659 ± 0.061

Sequence	protein stability index
VWGGVICFGLWM	0.579 ± 0.02
VWGVFASPVVYR	0.712 ± 0.049
VWGWGAWGGCGG	0.719 ± 0.067
VWLFAESFCGCV	0.597 ± 0.036
VWLGGGVRLGRL	0.738 ± 0.059
VWLGTGGSYGFC	0.825 ± 0.16
VWRSAMIRVPPC	0.608 ± 0.054
VWVAGGVLWVLG	0.5433 ± 0.0042
VWVSHPWYMAFL	0.618 ± 0.066
VYGIAPPTRCFS	0.649 ± 0.024
VYKRNILHLASE	0.681 ± 0.13
VYLSSSLFPPSS	0.804 ± 0.042
VYLTGRCRRCLR	0.702 ± 0.05
VYMDKKNKCIMK	0.795 ± 0.15
VYRRWIKGKGRV	0.675 ± 0.026
VYSPVEHLLATF	0.59 ± 0.1
VYSRESMTGPVK	0.7 ± 0.059
WAARLDISQSPI	0.754 ± 0.011
WAERESLNGLSA	0.718 ± 0.027
WAFGSTVSSGIV	0.689 ± 0.017
WAGGFGGLGRDT	0.744 ± 0.0089
WAGGGRVDDGGG	0.643 ± 0.059
WAGLAQPKLVLH	0.659 ± 0.024

Sequence	protein stability index
WAPHLPQPSRCS	0.743 ± 0.062
WARDLGAVAVQT	0.518 ± 0.075
WAVGLNPSGLGT	0.651 ± 0.063
WCMMSWMSQFRP	0.653 ± 0.015
WCPGVSGVAGVF	0.703 ± 0.056
WCPVHGSGGAPL	0.674 ± 0.026
WCVCTFGGCDFP	0.641 ± 0.012
WCVEGRATGRGW	0.674 ± 0.018
WCVRWGVVGPGL	0.634 ± 0.03
WDGAGGGFGLVV	0.726 ± 0.061
WDGGPTRSGGTG	0.711 ± 0.013
WDNGQVRLLRYV	0.593 ± 0.015
WEACLGRPEAGM	0.724 ± 0.064
WEEKLEGTPTGG	0.72 ± 0.072
WELVYLASLVQQ	0.666 ± 0.055
WEVGVGRQDVEW	0.7448 ± 0.0065
WFDGGGWLLFVV	0.557 ± 0.011
WFDWLAIAFYLT	0.526 ± 0.014
WFFVADVFKSWL	0.704 ± 0.039
WFRPPSVPEEEY	0.728 ± 0.048
WFSCYSGQSSNF	0.757 ± 0.11
WFSGFLGEFNRF	0.706 ± 0.063
WFVVRGGLSPGG	0.695 ± 0.038

Sequence	protein stability index
WGAGRGGAFFSG	0.6576 ± 0.0062
WGCCRPERNCAV	0.702 ± 0.02
WGFLCVALGRWV	0.644 ± 0.038
WGGAGGGSGYGR	0.68 ± 0.064
WGGCALEQGGAV	0.736 ± 0.025
WGGFGLGVCAKC	0.616 ± 0.072
WGGGGGGGPAGV	0.6659 ± 0.0021
WGGGGLRVSCGT	0.687 ± 0.093
WGGGGVLEVLLG	0.531 ± 0.008
WGGGGWRGGGAR	0.747 ± 0.033
WGGGLGTAVVGV	0.643 ± 0.021
WGGQRGWVEVWR	0.683 ± 0.04
WGKGGWHRRWGC	0.673 ± 0.0098
WGRRGSRGSWGA	0.733 ± 0.028
WGVVGEWAGVGR	0.747 ± 0.052
WGWGGHGIVRRE	0.812 ± 0.14
WGYAFVGVVRGA	0.661 ± 0.046
WGYEGGWGGHGT	0.659 ± 0.025
WHRAGRSRMSWS	0.777 ± 0.1
WIFRDHVLRRFP	0.661 ± 0.024
WIISERDRTEQT	0.733 ± 0.06
WIRTCMLIQGQT	0.736 ± 0.021
WIRVYPDSSSPL	0.8557 ± 0.002

Sequence	protein stability index
WKEMRKKVGRGK	0.696 ± 0.056
WKNTNSLRAPAL	0.675 ± 0.016
WLAGKAGASHRG	0.656 ± 0.0079
WLAIFFFSLSPF	0.525 ± 0.055
WLFAFLCSCFCV	0.71 ± 0.093
WLGFHFLFLWKC	0.587 ± 0.1
WLIKKIKTKQTR	0.758 ± 0.074
WLLGLRPTVSKE	0.756 ± 0.068
WLRRFIFGSVVN	0.657 ± 0.015
WPPRPPRPSSTL	0.724 ± 0.011
WPSCKVHSPSPS	0.675 ± 0.016
WPWLHSVACLYS	0.626 ± 0.09
WRAVVVSGTVAY	0.578 ± 0.025
WRGGAWVRGCVL	0.74 ± 0.04
WRGGWAETGGRE	0.705 ± 0.013
WRRCSGVGVGSP	0.663 ± 0.072
WRWCGLWDTRTY	0.819 ± 0.0085
WSFMYLYFFDSW	0.685 ± 0.086
WSGREGRGEWGW	0.791 ± 0.024
WSIVVDDISWSV	0.698 ± 0.013
WSLGPDVCGGVV	0.708 ± 0.027
WSPGGGPLGLYE	0.743 ± 0.018
